Experimental data reported in patent US20240327523A1 (University of California, published 2024).

T1: Fc-CD94 (biotinylated Fc fusion protein with the extracellular domain of human CD94 fused at the C-terminal … (human, UniProt Q13241 32-179, biotinylated on the biotin-acceptor-tag (~90% biotinylation)))
T1 chain: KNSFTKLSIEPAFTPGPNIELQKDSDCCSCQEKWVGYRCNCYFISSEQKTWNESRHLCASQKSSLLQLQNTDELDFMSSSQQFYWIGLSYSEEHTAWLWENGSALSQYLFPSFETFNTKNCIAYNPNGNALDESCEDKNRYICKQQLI

T2: Fc-CD94 (biotinylated Fc fusion protein with the extracellular domain of human CD94 fused at the C-terminal … (human, UniProt Q13241 32-179, biotinylated on the biotin-acceptor-tag (~90% biotinylation)))
T2 construct: extracellular domain; Expressed in Expi293 cells; also called CD94 Fc fusion protein; Fc-CD94 fusion protein; not shown: biotin-acceptor-tag at the N-terminus; human IgG1 Fc; TEV proteolysis site between the ECD and Fc-domain
T2 sequence (looked up): T1 chain

T3: human CD94 expressed on Ba/F3 cells (human, UniProt Q13241 1-179)
T3 construct: whole, on cells; Mouse Ba/F3 cells stably transduced with a retroviral vector encoding human CD94; also called Ba/F3 transfectants expressing human CD94
T3 sequence (looked up): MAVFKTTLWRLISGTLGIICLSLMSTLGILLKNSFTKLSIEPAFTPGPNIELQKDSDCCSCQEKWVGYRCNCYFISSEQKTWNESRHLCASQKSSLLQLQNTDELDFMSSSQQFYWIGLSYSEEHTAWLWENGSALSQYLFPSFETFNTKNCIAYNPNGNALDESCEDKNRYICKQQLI

B1: JLS002-rAB23 Fab (Fab, V domains shown)
VH: EVQLVESGGGLVQPGGSLRLSCAASGFNVYSSSIHWVRQAPGKGLEWVASISSYSGSTSYADSVKGRFTISADTSKNTAYLQMNSLRAEDTAVYYCARYGYYMSGAMDYWGQGTLVTVSS
VL: DIQMTQSPSSLSASVGDRVTITCRASQSVSSAVAWYQQKPGKAPKLLIYSASSLYSGVPSRFSGSRSGTDFTLTISSLQPEDFATYYCQQKKAYSLITFGQGTKVEIK
notes: Fab expressed and purified after phage selection
B2: JLS002-rAB23 IgG (antibody, V domains shown)
VH: B1 VH
VL: B1 VL
notes: also called JSI002 rab 23
B3: JLS002-rAB22 Fab (Fab, V domains shown)
VH: EVQLVESGGGLVQPGGSLRLSCAASGFNVYSSSIHWVRQAPGKGLEWVAYISSYSGYTYYADSVKGRFTISADTSKNTAYLQMNSLRAEDTAVYYCARGRYQGMDYWGQGTLVTVSS
VL: DIQMTQSPSSLSASVGDRVTITCRASQSVSSAVAWYQQKPGKAPKLLIYSASSLYSGVPSRFSGSRSGTDFTLTISSLQPEDFATYYCQQYAYHLITFGQGTKVEIK
notes: as for B1
B4: JLS002-rAB22 IgG (antibody, V domains shown)
VH: B3 VH
VL: B3 VL
notes: also called rab22 JIS002 rab 22

Assays:
[1] = target: T1, Fc-CD94 (biotinylated Fc fusion protein …); experiment: ELISA
[2] = target: T2, Fc-CD94 (biotinylated Fc fusion protein …); experiment: multipoint ELISA of purified Fab
[3] = target: T2, Fc-CD94 (biotinylated Fc fusion protein …); experiment: assay not given; IgG affinity was measured by Octet BLI on immobilized Fc-CD94 (FIG. 3)
Procedure: An octet assay was used to measure the affinity of IgG for the two binders JLS002-rAB22 and JLS002-rAB23. An Octet RED384 (ForteBio) instrument was used to measure the affinity of IgG for the two binders, JLS002-rAB22 and JLS002-rAB23. Fc-CD94 fusion protein was immobilized on a bio-layer interfrometry biosensor coated with streptavidin.
After blocking with PBST buffer (PBS+[…]) containing 10 μM of biotin, the IgGs being tested were loaded for 15 minutes followed by change to PBST buffer without IgG for ˜30 minutes. The kinetic binding curve was recorded.

[4] = target: T1, Fc-CD94 (biotinylated Fc fusion protein …); experiment: BLI (Octet)
[5] = target: T3, human CD94 expressed on Ba/F3 cells; experiment: flow cytometry staining of Ba/F3 transfectants, PE-conjugated anti-human IgG1
Procedure: Mouse Ba/F3 cells were stably transduced with retroviral vectors encoding human CD94 or with human CD94, human NKG2C, and human DAP12 as described in Lanier, L. L., B. C. Corliss, J. Wu, and J. H. Phillips. 1998. Association of DAP12 with activating CD94/NKG2C NK cell receptors. Immunity 8:693-701. PMID: 9655483. The Ba/F3 transfectants were incubated with phosphate buffered saline (unstained) or with the rab22 JIS002 rab 22 or JSI002 rab 23 antibodies, washed, and then stained with PE-conjugated anti-human IgG1 using standard methods.

| Binder | EC50 [1] [nM] | binding result [2] | binding result [3] | Kd [4] [nM] | binding result [5] |
| --- | --- | --- | --- | --- | --- |
| B1 | 2.98 | binds | – | – | – |
| B2 | – | – | binds | 0.94 | binds |
| B3 | 3.42 | binds | – | – | – |
| B4 | – | – | binds | 1.74 | binds |
